Residue numbers refer to the chain shown, from its start.
T1: HN of hPIV-1-GFP virus (on virions and on hPIV-1-infected cells) (human parainfluenza virus 1 (hPIV-1), UniProt P16071 1-575)
T1 sequence: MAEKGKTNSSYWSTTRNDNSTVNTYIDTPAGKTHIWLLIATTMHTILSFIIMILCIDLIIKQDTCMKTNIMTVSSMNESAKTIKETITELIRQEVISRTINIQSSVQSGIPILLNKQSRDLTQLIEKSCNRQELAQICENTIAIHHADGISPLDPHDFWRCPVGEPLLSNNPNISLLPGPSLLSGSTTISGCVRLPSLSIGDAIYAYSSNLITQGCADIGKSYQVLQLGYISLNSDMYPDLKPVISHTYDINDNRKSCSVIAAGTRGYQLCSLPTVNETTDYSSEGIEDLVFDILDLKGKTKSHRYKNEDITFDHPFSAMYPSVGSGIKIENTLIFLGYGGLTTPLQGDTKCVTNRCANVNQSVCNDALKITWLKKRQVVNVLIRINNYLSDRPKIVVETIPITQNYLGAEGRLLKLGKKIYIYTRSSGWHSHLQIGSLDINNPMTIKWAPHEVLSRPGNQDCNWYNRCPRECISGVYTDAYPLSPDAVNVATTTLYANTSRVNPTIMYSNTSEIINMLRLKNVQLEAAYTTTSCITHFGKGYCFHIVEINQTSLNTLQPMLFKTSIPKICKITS

T2: D275N- and R277T-mutant hPIV-3 HN, expressed on transfected HEK293T cells (human parainfluenza virus 3 (hPIV-3), UniProt P08492 1-572)
T2 construct: also called mut HN3
T2 chain: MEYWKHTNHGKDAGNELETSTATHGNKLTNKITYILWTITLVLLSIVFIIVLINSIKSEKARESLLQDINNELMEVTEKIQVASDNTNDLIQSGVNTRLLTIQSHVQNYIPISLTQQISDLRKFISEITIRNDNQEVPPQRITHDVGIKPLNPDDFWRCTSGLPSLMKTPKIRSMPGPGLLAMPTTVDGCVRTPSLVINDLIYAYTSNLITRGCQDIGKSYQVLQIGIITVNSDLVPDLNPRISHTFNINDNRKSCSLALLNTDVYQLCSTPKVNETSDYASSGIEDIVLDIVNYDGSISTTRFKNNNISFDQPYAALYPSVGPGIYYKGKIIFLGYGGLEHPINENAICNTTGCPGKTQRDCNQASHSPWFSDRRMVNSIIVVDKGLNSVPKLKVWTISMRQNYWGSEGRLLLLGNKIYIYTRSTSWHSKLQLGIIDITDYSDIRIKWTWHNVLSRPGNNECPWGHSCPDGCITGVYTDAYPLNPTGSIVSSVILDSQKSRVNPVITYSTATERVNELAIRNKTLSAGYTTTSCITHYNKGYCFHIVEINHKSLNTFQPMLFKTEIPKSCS

T3: hPIV-3 hemagglutinin-neuraminidase (HN), expressed on transfected HEK293T cells (human parainfluenza virus 3 (hPIV-3), UniProt P08492 1-572)
T3 construct: also called hPIV-3 HN; HN3
T3 chain: T2 chain with N275D, T277R

T4: hPIV-1 hemagglutinin-neuraminidase (HN), expressed on transfected HEK293T cells (human parainfluenza virus 1 (hPIV-1), UniProt P16071 1-575)
T4 construct: whole, on cells; also called hPIV-1 HN; HN1
T4 sequence: T1 sequence

B1: bivalent VHH A2R3-59-59 (VHH)
chain: QVQLQESGGGLVQPGGSLRLSCAASGSISGINGMGWYRQAPGKQRELVAAITSGGSTNYADSVKGRFTISRDNAKNTVDLQMNSLQPEDTAVYYCYVSSTPSWGLYDDYWGQGTQVTVSSGGGGSGGGGSGGGGSQVQLQESGGGLVQPGGSLRLSCAASGSISGINGMGWYRQAPGKQRELVAAITSGGSTNYADSVKGRFTISRDNAKNTVDLQMNSLQPEDTAVYYCYVSSTPSWGLYDDYWGQGTQVTVSS
notes: also called bivalent A2R3-59
B2: VHH A2R3-55 (VHH)
VHH: QVQLQESGGGLVQAGGSLRLSCAASGSIDRIDAMGWSRQAPGKQRELVATITTGGITNYAVSVKGRFTISRDNAKNTVYLQMNSLKPEDTAVYYCNAQGAPSWGLYEDYWGQGTQVTVSS

Legend:
[1] = target: T1, HN of hPIV-1-GFP virus (on virions and …); assay: cell-based or functional assay
[2] = target: HN of hPIV-3-GFP virus (on virions and on hPIV-3-infected cells) (human parainfluenza virus 3 (hPIV-3), UniProt P08492 1-572); assay: cell-based or functional assay
[3] = target: T2, D275N- and R277T-mutant hPIV-3 HN, …; assay: flow cytometry on transfected HEK293T cells, VHH 1 or 0.1 µg/ml (FIG. 11C)
[4] = target: T3, hPIV-3 hemagglutinin-neuraminidase …; assay: flow cytometry on transfected HEK293T cells, 10 µg/ml (FIG. 16A)
[5] = target: T2, D275N- and R277T-mutant hPIV-3 HN, …; assay: flow cytometry on transfected HEK293T cells (FIG. 11C)
[6] = target: T4, hPIV-1 hemagglutinin-neuraminidase …; assay: flow cytometry on transfected HEK293T cells
[7] = target: T5, hPIV-3 fusion protein (F), expressed on transfected HEK293T cells (human parainfluenza virus 3 (hPIV-3), UniProt P06828 19-539); assay: flow cytometry on transfected HEK293T cells (FIG. 4)
T5 construct: whole, on cells

[8] = target: T3, hPIV-3 hemagglutinin-neuraminidase …

| Binder | IC50 of neutralization of hPIV-1-GFP on Vero (E6) TMPRSS2 cells [1] [nM] | fold higher potency of hPIV-3-GFP neutralization than the monovalent counterpart [2] [fold] | binding result [3] | binding result [4] | binding result [5] | binding result [6] | binding result [7] | fold reduction of binding at 500 µg/ml of zanamivir [8] [fold] |
| --- | --- | --- | --- | --- | --- | --- | --- | --- |
| B1 | 2.9 | ~8 | binds | binds | – | – | – | – |
| B2 | – | – | – | – | no binding (tested: 1 or 0.1 µg/ml) | no binding | no binding (tested: 1 µg/ml) | ~5 |

From US20260159606A1 (VIB VZW, published 2026)
